Test results: patent US20040146507A1 (Genentech, published 2004)
Substitutions are numbered along the chain they refer to.

T1: rhesus CD11a (rhesus, UniProt H9Z8N3 26-1169)
T1 construct: whole, on cells; On rhesus peripheral blood lymphocytes or leukocytes; also called rhCD11a
T1 sequence: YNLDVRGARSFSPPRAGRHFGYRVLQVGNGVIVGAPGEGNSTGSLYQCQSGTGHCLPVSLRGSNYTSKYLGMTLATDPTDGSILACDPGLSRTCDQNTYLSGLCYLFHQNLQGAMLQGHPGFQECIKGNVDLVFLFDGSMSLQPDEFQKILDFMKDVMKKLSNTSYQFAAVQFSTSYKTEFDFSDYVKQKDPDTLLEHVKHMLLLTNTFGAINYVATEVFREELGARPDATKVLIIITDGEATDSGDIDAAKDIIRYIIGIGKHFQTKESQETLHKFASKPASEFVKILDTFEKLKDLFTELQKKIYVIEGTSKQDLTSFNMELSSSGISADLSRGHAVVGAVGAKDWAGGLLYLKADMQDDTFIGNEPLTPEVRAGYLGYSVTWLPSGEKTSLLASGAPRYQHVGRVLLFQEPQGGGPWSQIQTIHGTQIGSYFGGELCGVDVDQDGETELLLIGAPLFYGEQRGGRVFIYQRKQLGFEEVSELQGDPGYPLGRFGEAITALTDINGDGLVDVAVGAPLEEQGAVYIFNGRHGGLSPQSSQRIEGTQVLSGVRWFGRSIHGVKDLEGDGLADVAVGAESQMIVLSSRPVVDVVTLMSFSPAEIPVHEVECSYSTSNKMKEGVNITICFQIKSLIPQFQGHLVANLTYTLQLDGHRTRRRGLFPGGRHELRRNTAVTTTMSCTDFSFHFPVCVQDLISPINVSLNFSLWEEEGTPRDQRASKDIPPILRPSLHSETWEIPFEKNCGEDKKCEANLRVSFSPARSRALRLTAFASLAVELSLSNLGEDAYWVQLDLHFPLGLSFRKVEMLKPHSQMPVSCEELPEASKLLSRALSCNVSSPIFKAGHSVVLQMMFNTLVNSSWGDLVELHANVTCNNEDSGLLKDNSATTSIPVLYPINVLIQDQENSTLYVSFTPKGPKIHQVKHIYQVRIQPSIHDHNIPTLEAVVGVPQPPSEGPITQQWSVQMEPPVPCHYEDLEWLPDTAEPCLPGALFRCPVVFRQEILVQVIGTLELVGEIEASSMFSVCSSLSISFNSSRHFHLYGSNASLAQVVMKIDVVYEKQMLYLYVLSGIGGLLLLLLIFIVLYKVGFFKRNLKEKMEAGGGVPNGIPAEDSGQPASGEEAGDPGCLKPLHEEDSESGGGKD

B1: HuIgG1 mutant AsnL92Ala (antibody, V domains shown)
VH: EVQLVESGGGLVQPGGSLRLSCAASGYSFTGHWMNWVRQAPGKGLEWVGMIHPSDSETRYNQKFKDRFTISVDKSKNTLYLQMNSLRAEDTAVYYCARGIYFYGTTYFDYWGQGTLVTVSS
VL: DIQMTQSPSSLSASVGDRVTITCRASKTISKYLAWYQQKPGKAPKLLIYSGSTLQSGVPSRFSGSGSGTDFTLTISSLQPEDFATYYCQQHAEYPLTFGQGTKVEIKR
notes: HuIgG1 mutant, human IgG1; Kabat numbering
B2: HuIgG1 mutant GlyH31Ala (antibody, V domains shown)
VH: B1 VH with G31A
VL: DIQMTQSPSSLSASVGDRVTITCRASKTISKYLAWYQQKPGKAPKLLIYSGSTLQSGVPSRFSGSGSGTDFTLTISSLQPEDFATYYCQQHNEYPLTFGQGTKVEIK
notes: as for B1
B3: HuIgG1 mutant SerH53Ala (antibody, V domains shown)
VH: B1 VH with S54A
VL: B2 VL
notes: as for B1
B4: HuIgG1 mutant ThrL53Ala (antibody, V domains shown)
VH: B1 VH
VL: B1 VL with T53A, A92N
notes: as for B1
B5: HuIgG1 mutant GluL93Ala (antibody, V domains shown)
VH: B1 VH
VL: B1 VL with A92N, E93A
notes: as for B1
B6: HuIgG1 mutant LysH62Ala (antibody, V domains shown)
VH: B1 VH with K63A
VL: B2 VL
notes: as for B1
B7: HuIgG1 mutant SerL50Ala (antibody, V domains shown)
VH: B1 VH
VL: B1 VL with S50A, A92N
notes: as for B1
B8: HuIgG1 mutant LysH64Ala (antibody, V domains shown)
VH: B1 VH with K65A
VL: B2 VL
notes: as for B1
B9: HuIgG1 mutant GlnH61Ala (antibody, V domains shown)
VH: B1 VH with Q62A
VL: B2 VL
notes: as for B1
B10: HuIgG1 mutant H2A3 (antibody, V domains shown)
VH: B1 VH with H52A, S56A
VL: B2 VL
notes: as for B1
B11: HuIgG1 mutant H2A2 (antibody, V domains shown)
VH: B1 VH with S54A, S56A
VL: B2 VL
notes: as for B1
B12: HuIgG1 mutant LysH73Arg (antibody, V domains shown)
VH: B1 VH with K74R
VL: B2 VL
notes: as for B1
B13: HuIgG1 mutant L1 (antibody, V domains shown)
VH: B1 VH
VL: B1 VL with K27A, T28A, S30A, K31A, A92N
notes: as for B1
B14: HuIgG1 mutant HisH52Ala (antibody, V domains shown)
VH: B1 VH with H52A
VL: B2 VL
notes: as for B1
B15: HuIgG1 mutant ArgH58Ala (antibody, V domains shown)
VH: B1 VH with R59A
VL: B2 VL
notes: as for B1
B16: HuIgG1 mutant AspH65Ala (antibody, V domains shown)
VH: B1 VH with D66A
VL: B2 VL
notes: as for B1
B17: HuIgG1 mutant ThrH100aAla (antibody, V domains shown)
VH: B1 VH with T105A
VL: B2 VL
notes: as for B1
B18: HuIgG1 mutant HisH32Ala (antibody, V domains shown)
VH: B1 VH with H32A
VL: B2 VL
notes: as for B1
B19: HuIgG1 mutant SerL52Ala (antibody, V domains shown)
VH: B1 VH
VL: B1 VL with S52A, A92N
notes: as for B1
B20: HuIgG1 mutant SerH55Asn (antibody, V domains shown)
VH: B1 VH with S56N
VL: B2 VL
notes: as for B1
B21: HuIgG1 mutant SerH28Ala (antibody, V domains shown)
VH: B1 VH with S28A
VL: B2 VL
notes: as for B1
B22: HuIgG1 mutant LysH73Ala (antibody, V domains shown)
VH: B1 VH with K74A
VL: B2 VL
notes: as for B1
B23: HuIgG1 mutant HisH52Ser (antibody, V domains shown)
VH: B1 VH with H52S
VL: B2 VL
notes: as for B1
B24: HuIgG1 mutant TyrH99Ala (antibody, V domains shown)
VH: B1 VH with Y103A
VL: B2 VL
notes: as for B1
B25: HuIgG1 mutant TyrH97Ala (antibody, V domains shown)
VH: B1 VH with Y101A
VL: B2 VL
notes: as for B1
B26: HuIgG1 mutant TyrL94Ala (antibody, V domains shown)
VH: B1 VH
VL: B1 VL with A92N, Y94A
notes: as for B1
B27: HuIgG1 mutant L2 (antibody, V domains shown)
VH: B1 VH
VL: B1 VL with S50A, S52A, T53A, A92N
notes: as for B1
B28: HuIgG1 mutant TyrH100cAla (antibody, V domains shown)
VH: B1 VH with Y107A
VL: B2 VL
notes: as for B1
B29: HuIgG1 mutant ThrH100bAla (antibody, V domains shown)
VH: B1 VH with T106A
VL: B2 VL
notes: as for B1
B30: HuIgG1 mutant H1 (antibody, V domains shown)
VH: B1 VH with S28A, T30A, H32A
VL: B2 VL
notes: as for B1
B31: HuIgG1 mutant H3B (antibody, V domains shown)
VH: B1 VH with T105A, T106A, Y107A
VL: B2 VL
notes: as for B1

Molecular target: T1, rhesus CD11a
Assay: rhesus PBL binding

Var.EC50/HuIgG1 EC50	Binder
3.3 ratio	B1
2.4 ratio	B2
0.7 ratio	B3
0.7 ratio	B4
2.9 ratio	B5
4.9 ratio	B6
2.7 ratio	B7
1.2 ratio	B8
5.3 ratio	B9
1.3 ratio	B10
1.1 ratio	B11
5.5 ratio	B12
1 ratio	B13
0.7 ratio	B14
3.3 ratio	B15
1.1 ratio	B16

Molecular target: T2, human CD11a (human, UniProt P20701 26-1170)
T2 construct: whole, on cells; On Jurkat T-cells or human peripheral blood mononuclear cells, as part of LFA-1; also called CD11a on Jurkat cells; alpha subunit of LFA-1
Assay: FACScan, Jurkat cells
Description: Aliquots of 10⁶ Jurkat T-cells were incubated with serial dilutions of humanized and control antibodies in PBS-0.1% BSA-10 mM sodium azide for 45 min at 4° C. The cells were washed and then incubated in fluorescein-conjugated goat anti-human F(ab′)₂ (Organon Teknika, Westchester, Pa.) for 45 min at 4° C. Cells were washed and analysed on a FACScan (Becton Dickinson, Mountain View, Calif.). 8×10³ cells were acquired by list mode and gated by forward light scatter versus side light scatter, thereby excluding dead cells and debris.
To determine which CDR residues were involved in binding to human CD11a an alanine-scan (Cunningham et al., Science 244:1081 (1989)) was performed on the CDR residues of HuIgG1. Each mutant was tested for binding to CD11a on Jurkat cells. In the light chain only CDR-L3 contributes to binding.

Var.EC50/HuIgG1 EC50	Binder
3.3 ratio	B1
1.2 ratio	B2
1.8 ratio	B3
2.3 ratio	B17
2.3 ratio	B18
0.9 ratio	B4
1.7 ratio	B5
1.8 ratio	B6
1.1 ratio	B19
1.2 ratio	B7
2.1 ratio	B20
2.5 ratio	B8
4.1 ratio	B9
6.9 ratio	B21
5.2 ratio	B22
4.6 ratio	B10

Var.EC50/HuIgG1 EC50	Binder
1.9 ratio	B11
4.6 ratio	B12
5 ratio	B23
1.3 ratio	B13
1.4 ratio	B24
1.5 ratio	B14
10.9 ratio	B25
1.1 ratio	B15
11.8 ratio	B26
0.8 ratio	B16
1.1 ratio	B27
7.6 ratio	B28
1.4 ratio	B29
5.9 ratio	B30
34.7 ratio	B31
